Experiment [1] deals with T1, GST-FE65 PTB1 (bacterially expressed) (UniProt O00213 361-514).
T1 sequence (looked up): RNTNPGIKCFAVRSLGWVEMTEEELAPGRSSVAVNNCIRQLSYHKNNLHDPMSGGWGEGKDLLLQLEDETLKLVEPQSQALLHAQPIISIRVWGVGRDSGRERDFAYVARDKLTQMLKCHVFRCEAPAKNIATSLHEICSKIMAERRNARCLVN
Nature of the experiment: pull-down.

The target in experiment [2] is T2, GST-FE65 PTB1 (mammalian, pCIneo-GST-FE65 PTB1) (human, UniProt O00213 361-514).
T2 sequence (looked up): T1 sequence (looked up)
Nature of the experiment: pull-down.

Residue numbers refer to the chain shown, from its start. In names and notes the source's numbering stands.

B1: Myc/His-tagged wild-type ARF6 (natural protein, UniProt P62330 1-175, looked up)
chain: MGKVLSKIFGNKEMRILMLGLDAAGKTTILYKLKLGQSVTTIPTVGFNVETVTYKNVKFNVWDVGGQDKIRPLWRHYYTGTQGLIFVVDCADRDRIDEARQELHRIINDREMRDAIILIFANKQDLPDAMKPHEIQEKLGLTRIRDRNWYVQPSCATSGDGLYEGLTWLTSNYKS
Turning to B1, the “percent of input pulled down” value in experiment [1] turned out to be 12%.

B2: Myc/His-tagged ARF6 T27N (natural protein, UniProt P62330 1-175, looked up)
chain: B1 chain with T27N
As for B2, the “percent of input pulled down” value in experiment [2] was determined as 23%; in experiment [1] it was 27%.

B3: Myc/His-tagged ARF6 Q67L (natural protein, UniProt P62330 1-175, looked up)
chain: B1 chain with Q67L
In the case of B3, the “percent of input pulled down” value is 2% in experiment [2] and 0.7% in experiment [1].

These data come from PMC4516155 (FASEB journal : official publication of the Federation of …, 2013).
